Drawing on patent US20060228300A1, this text covers percent shifted to a high molecular weight species and fold avidity against TF1 for 1 substance.

One assay addresses CEA (UniProt P06731). Kind of assay: SE-HPLC of 125I-TF2 mixed with a 20-fold molar excess of CEA.
The target in assay [1] is fusion protein containing the A3B3 domain of CEA (UniProt P06731). Kind of assay: competitive ELISA vs HRP-conjugated hMN-14 IgG (1 nM) on the A3B3 fusion protein. On the technique in general: ELISA stands for enzyme-linked immunosorbent assay.
Sequence of fusion protein containing the A3B3 domain of CEA (P06731 499-676): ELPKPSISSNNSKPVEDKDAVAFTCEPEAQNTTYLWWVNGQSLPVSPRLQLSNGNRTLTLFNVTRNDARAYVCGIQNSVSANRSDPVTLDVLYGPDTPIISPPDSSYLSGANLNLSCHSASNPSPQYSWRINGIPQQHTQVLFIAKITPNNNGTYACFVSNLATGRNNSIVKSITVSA

Sequence of CEA (P06731 35-685 limits assumed): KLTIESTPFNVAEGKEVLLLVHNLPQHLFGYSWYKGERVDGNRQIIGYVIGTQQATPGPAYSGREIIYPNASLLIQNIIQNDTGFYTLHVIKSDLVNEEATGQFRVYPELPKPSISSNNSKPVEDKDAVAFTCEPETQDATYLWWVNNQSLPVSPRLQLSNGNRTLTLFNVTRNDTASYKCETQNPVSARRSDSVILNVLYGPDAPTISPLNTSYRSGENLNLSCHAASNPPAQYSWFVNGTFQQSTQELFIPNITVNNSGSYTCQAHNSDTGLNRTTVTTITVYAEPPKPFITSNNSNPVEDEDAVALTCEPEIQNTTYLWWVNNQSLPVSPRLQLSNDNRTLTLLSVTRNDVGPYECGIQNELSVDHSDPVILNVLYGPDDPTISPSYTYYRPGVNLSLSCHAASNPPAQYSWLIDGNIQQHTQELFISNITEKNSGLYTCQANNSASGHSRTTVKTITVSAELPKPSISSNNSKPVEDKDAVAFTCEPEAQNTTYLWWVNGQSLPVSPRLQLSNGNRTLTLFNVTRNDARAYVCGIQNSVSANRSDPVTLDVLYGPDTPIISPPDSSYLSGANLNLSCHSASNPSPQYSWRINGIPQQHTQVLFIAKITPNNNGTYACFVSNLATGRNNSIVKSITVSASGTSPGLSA

In the case of TF2 (bispecific antibody), the percent shifted to a high molecular weight species in the assay with CEA came out at 95%. Also, the fold avidity against TF1 in assay [1] is 2 fold.
